Article PMC4237735, “Codon optimization and factorial screening for enhanced soluble expression of human ciliary neurotrophic factor in Escherichia coli” (BMC Biotechnology, 2014)

Target: T1, human ciliary neurotrophic factor receptor alpha (hCNTFRα) (human, UniProt P26992 23-342)
T1 construct: human ciliary neurotrophic factor receptor alpha (hCNTFRα), bought protein; also called hCNTF receptor; source: bought: Sino Biologicals Inc
T1 sequence (looked up): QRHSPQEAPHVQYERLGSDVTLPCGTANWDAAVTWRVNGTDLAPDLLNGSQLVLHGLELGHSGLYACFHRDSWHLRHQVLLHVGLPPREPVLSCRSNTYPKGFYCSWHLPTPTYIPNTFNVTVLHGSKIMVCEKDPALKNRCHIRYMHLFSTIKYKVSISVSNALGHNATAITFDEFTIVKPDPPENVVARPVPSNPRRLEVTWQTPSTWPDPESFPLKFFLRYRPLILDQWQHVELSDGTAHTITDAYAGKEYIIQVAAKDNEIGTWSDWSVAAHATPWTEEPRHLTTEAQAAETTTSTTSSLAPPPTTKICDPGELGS
Test: ELISA; 1 μg hCNTFRα in PBS immobilised on Nunc MaxiSorp 96-well plate; blocked with 2% BSA in TBS-T; biotinylated CNTF 0.2 – 3.0 μg added, room temperature 2 h; detected with HRP-conjugated streptavidin and TMB, OD 450 nm
Conditions: both partners purified

B1: recombinant 6-His-hCNTF (human ciliary neurotrophic factor), biotinylated (ligand, UniProt P26441 1-200, looked up)
chain: MAFTEHSPLTPHRRDLCSRSIWLARKIRSDLTALTESYVKHQGLNKNINLDSADGMPVASTDQWSELTEAERLQENLQAYRTFHVLLARLLEDQQVHFTPTEGDFHQAIHTLLLQVAAFAYQIEELMILLEYKIPRNEADGMPINVGDGGLFEKKLWGLKVLQELSQWTVRSIHDLRFISSHQTGIPARGSHYIANNKKM
modifications: biotin (reacted with a 20-fold molar excess of NHS-PEG4-biotin; sites not stated)
notes: Rhinovirus 3C protease cleavage site between the tag and the insert; No cleavage of the 6-His tag is described; also called biotinylated hCNTF; biotinylated CNTF; source: E. coli Rosetta 2(DE3)pLysS, TBONEX 25°C, purified (Ni-IDA, SEC)
EC50: 36 nM
